Measured values: patent US9873883B2, “Glyphosate resistant plants and associated methods” (Dow AgroSciences LLC, priority 2012, dated 2018)

Tested on: C=C(OP(=O)(O)O)C(=O)O
Assay: In vitro kinetic assay (inorganic phosphate production, malachite green)
Format: biochemical, Mariprofundus ferrooxydans
Details: other: pH 7.5, 1 mM S3P

“Mariprofundus ferrooxydans EPSP synthase DGT-14 variant DGT-14 v6 (G101A), SEQ ID NO:1 (Mariprofundus ferrooxydans PV-1; G101A)” showed a Km of 352.5 µM.
